As a reminder, the stoichiometry N is a count of units in the complex or per binding partner.

From paper PMC6050966, “Structure-Function Analysis of the Curli Accessory Protein CsgE Defines Surfaces Essential for Coordinating Amyloid Fiber Formation” (mBio, 2018) come the findings set out here.

Where only a bound is given, the exact number is not on record here.

Series [1] addresses CsgE W48A (E. coli MC4100). Description: native gel or EMSA; native PAGE of purified CsgE (monomer peak) incubated at 4°C or 25°C for various times.
Series [2] addresses 6x-His-tagged CsgA lacking the 20-residue N-terminal signal sequence (E. coli) (UniProt P28307).
Series [3] deals with CsgE F79A (E. coli MC4100). As to the kind of experiment: native gel or EMSA; native PAGE of purified CsgE (monomer peak) incubated at 4°C or 25°C for various times. For orientation: A gel shift assay detects complexes by their altered migration in electrophoresis.
Series [4] deals with P0AE95. Description: SEC-MALS; Superdex 200 Increase 10/300 GL, 0.3 ml/min; protein at 2 mg/ml in 50 mM KHPO4 pH 7.3 with and without 150 mM NaCl.
Series [5] addresses T1, 6x-His-tagged CsgA lacking the 20-residue N-terminal signal sequence (E. coli, UniProt P28307 21-151).
T1 construct: Freshly purified, unfolded monomer; also called unlabeled CsgA; monomeric CsgA
As to the kind of experiment: NMR titration; 1H-15N HSQC chemical shift perturbation at one ratio: 15N-labeled WT CsgE (80 µM, 0.4 M arginine) with or without unlabeled CsgA (80 µM). To be noted: both partners purified.

Series [6] addresses P0AE95. Description: SEC; Superdex 200 10/300, 50 mM potassium phosphate, 150 mM NaCl, pH 7.4; purified CsgE (20 µM) incubated at 25°C for 5 h to 28 h; monomer to nonamer.
Series [7] deals with P0AE95. Description: SEC; Superdex 200 10/300, 50 mM potassium phosphate, 150 mM NaCl, pH 7.4; purified CsgE (20 µM) incubated at 37°C; monomer to nonamer and larger oligomers. On the technique in general: SEC sorts molecules by how far they enter the pores of the column.
Series [8] addresses T2, WT CsgE (6x-His-tagged, E. coli MC4100) (E. coli MC4100), P0AE95.
T2 chain: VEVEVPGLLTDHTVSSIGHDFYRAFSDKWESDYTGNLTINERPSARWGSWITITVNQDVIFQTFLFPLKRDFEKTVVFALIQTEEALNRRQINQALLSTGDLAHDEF
As to the kind of experiment: native gel or EMSA; native PAGE of purified CsgE (monomer peak) incubated at 4°C or 25°C for various times. Particulars: remark: other sources report otherwise.

Series [9] addresses T2, WT CsgE (6x-His-tagged, E. coli MC4100) …. Description: SEC-MALS; Superdex 200 Increase 10/300 GL, 0.3 ml/min; protein at 2 mg/ml in 50 mM KHPO4 pH 7.3 with and without 150 mM NaCl. Particulars: remark: other sources report otherwise.
For series [10] the target is unchanged. Description: SEC; Superdex 200 10/300, 50 mM potassium phosphate, 150 mM NaCl, pH 7.4; purified CsgE (20 µM) incubated at 25°C for 5 h to 28 h; monomer to nonamer. To be noted: remark: other sources report otherwise.
For series [11] the target is unchanged. Description: SEC; Superdex 200 10/300, 50 mM potassium phosphate, 150 mM NaCl, pH 7.4; purified CsgE (20 µM) incubated at 37°C; monomer to nonamer and larger oligomers. Particulars: remark: other sources report otherwise.
The target is the same in series [12]. Description: SEC; Superdex 200 10/300, 50 mM potassium phosphate, 150 mM NaCl, pH 7.4; purified CsgE (20 µM) immediately after purification and kept at 4°C for up to 20 days; monomer to nonamer. Particulars: remark: other sources report otherwise.

Sequence of 6x-His-tagged CsgA lacking the 20-residue N-terminal signal sequence (E. coli) (P28307 21-151): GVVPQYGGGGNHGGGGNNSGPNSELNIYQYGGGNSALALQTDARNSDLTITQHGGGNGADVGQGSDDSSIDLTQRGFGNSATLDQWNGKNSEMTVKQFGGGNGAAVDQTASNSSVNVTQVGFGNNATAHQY
T1 sequence (P28307 21-151): as above

In series [1], CsgE W48A (natural protein) registered a stoichiometry N of 9.

In series [2], CsgE R47A (natural protein) yielded a Thioflavin T fluorescence of CsgA polymerization (25°C, 48 h): T50 of CsgA with CsgE R47A relative to WT CsgE (% decrease of T50 relative to WT CsgE) above 50.

Regarding CsgE F79A (natural protein), the stoichiometry N in [3] came out at 9.

B1: WT CsgE (6x-His-tagged, E. coli MC4100) (natural protein, UniProt P0AE95 23-129, looked up)
chain: VEVEVPGLLTDHTVSSIGHDFYRAFSDKWESDYTGNLTINERPSARWGSWITITVNQDVIFQTFLFPLKRDFEKTVVFALIQTEEALNRRQINQALLSTGDLAHDEF
notes: CsgE, periplasmic curli accessory protein of E. coli MC4100; add 21 for the precursor numbering of P0AE95; 15N-labeled (M9 minimal medium with [15N]ammonium sulfate) for NMR; Monomer peak of the S-100 column was used for SEC and native PAGE; also called wild-type CsgE; recombinant WT CsgE
Consider B1, for which, in [4], the “high-molecular-weight aggregate, percent of the loaded mass” value is recorded as “a large, high-molecular-weight aggregate representing 32% of the loaded mass”. Moreover, the binding result in [5] is “binds”. Besides, in series [6], the “nonamer peak area as percent of monomer peak area, after 5 h at 25°C” value was “the nonamer peak area was approximately 20% of the monomer peak area” and the “nonamer peak area as percent of monomer peak area, after 28 h at 25°C” value is recorded as “the nonamer peak area was approximately 40% of the monomer peak area”. Also, the “loss of monomer peak area within 1 h at 37°C” value in [7] is “the monomeric peak loses >65% of its area within 1 h of incubation”.

B2: WT CsgE (6x-His-tagged, E. coli MC4100), P0AE95 23-129 (natural protein)
chain: VEVEVPGLLTDHTVSSIGHDFYRAFSDKWESDYTGNLTINERPSARWGSWITITVNQDVIFQTFLFPLKRDFEKTVVFALIQTEEALNRRQINQALLSTGDLAHDEF
Turning to B2, the stoichiometry N in series [8], in series [10], in series [11] and in series [12] was 9 in each case. In addition, in series [9], the small oligomer, percent of the mass came to 2%. Besides, in series [12], the monomer, percent of peak area was above 90%.
